# In patent publication US20230165981A1, “[161Tb]-BASED RADIOPEPTIDES” (priority 2021, published 2023):
# Assay: Biodistribution: optimum injected molar amount
# Settings: female, mouse, in vivo, iv, total radioactivity, 2 h p.i.
compound,measurement,setting,value
"C[C@@H](O)[C@@H]1NC(=O)[C@H](CCCCN)NC(=O)[C@@H](Cc2c[nH]c3ccccc23)NC(=O)[C@H](Cc2ccc(O)cc2)NC(=O)[C@@H](NC(=O)[C@@H](Cc2ccccc2)NC(=O)CN2CCN(CC(=O)O)CCN(CC(=O)O)CCN(CC(=O)O)CC2)CSSC[C@@H](C(=O)N[C@H](CO)[C@@H](C)O)NC1=O [[^161Tb]Tb-DOTATOC, metal not drawn]",tissue uptake at 2 h,"CD-1 Foxn-1nu athymic nude, 0.04 nmol/mouse, Biodistribution: Adrenals, 0.040 nmol/mouse",0.65 ± 0.08 %ID/g
same,tissue uptake at 2 h,"CD-1 Foxn-1nu athymic nude, 0.04 nmol/mouse, Biodistribution: Kidneys, 0.040 nmol/mouse",9 ± 2 %ID/g
same,tissue uptake at 2 h,"CD-1 Foxn-1nu athymic nude, 0.2 nmol/mouse, Biodistribution: Heart, 0.20 nmol/mouse",< 0.1 %ID/g
same,tissue uptake at 2 h,"athymic nude (CD-1 Foxn-1nu), 0.04 nmol/mouse, Biodistribution: AR42J Tumor, 0.040 nmol/mouse",16 ± 4 %ID/g
same,tissue uptake at 2 h,"athymic nude (CD-1 Foxn-1nu), 0.04 nmol/mouse, Biodistribution: Blood, 0.040 nmol/mouse",< 0.1 %ID/g
same,tissue uptake at 2 h,"athymic nude (CD-1 Foxn-1nu), 0.04 nmol/mouse, Biodistribution: Heart, 0.040 nmol/mouse",< 0.1 %ID/g
same,tissue uptake at 2 h,"athymic nude (CD-1 Foxn-1nu), 0.04 nmol/mouse, Biodistribution: Muscle, 0.040 nmol/mouse",< 0.1 %ID/g
same,tissue uptake at 2 h,"athymic nude (CD-1 Foxn-1nu), 0.2 nmol/mouse, Biodistribution: AR42J Tumor, 0.20 nmol/mouse",14 ± 1 %ID/g
same,tissue uptake at 2 h,"athymic nude (CD-1 Foxn-1nu), 0.2 nmol/mouse, Biodistribution: Blood, 0.20 nmol/mouse",< 0.1 %ID/g
same,tissue uptake at 2 h,"athymic nude (CD-1 Foxn-1nu), 0.2 nmol/mouse, Biodistribution: Muscle, 0.20 nmol/mouse",< 0.1 %ID/g
same,tissue uptake at 2 h,"athymic nude (CD-1 Foxn-1nu), 1 nmol/mouse, Biodistribution: AR42J Tumor, 1.0 nmol/mouse",~8 %ID/g
same,tissue uptake at 2 h,"athymic nude (CD-1 Foxn-1nu), kidney uptake, irrespective of the applied setting (0.04-1.0 nmol)",~10 %ID/g
